Measured values from patent US20250376507A1 (INDUSTRY FOUNDATION OF CHONNAM NATIONAL UNIVERSITY, published 2025).

Legend:
[1] = target: CRT3LP (PASylated CRT-targeted L-ASNase: CRT3 monobody - L-ASNase - PAS200 tag - His6) (E. coli)
[2] = target: CRT4LP (PASylated CRT-targeted L-ASNase: CRT4 monobody - L-ASNase - PAS200 tag - His6) (E. coli)

B1: recombinant calreticulin protein (rCRT) (other)
chain: EPAVYFKEQFLDGDGWTSRWIESKHKSDFGKFVLSSGKFYGDEEKDKGLQTSQDARFYALSASFEPFSNKGQTLVVQFTVKHEQNIDCGGGYVKLFPNSLDQTDMHGDSEYNIMFGPDICGPGTKKVHVIFNYKGKNVLINKDIRCKDDEFTHLYTLIVRPDNTYEVKIDNSQVESGSLEDDWDFLPPKKIKDPDASKPEDWDERAKIDDPTDSKPEDWDKPEHIPDPDAKKPEDWDEEMDGEWEPPVIQNPEYKGEWKPRQIDNPDYKGTWIHPEIDNPEYSPDPSIYAYDNFGVLGLDLWQVKSGTIFDNFLITNDEAYAEEFGNETWGVTKAAEKQMKDKQDEEQRLKEEEEDKKRKEEEEAEDKEDDEDKDEDEEDEEDKEEDEEEDVPGQAKDEL
**Q.** B1 was tested. Which Kd [1] did it give?
**A.** 2.07 nM

**Q.** What about the Kd [2] of the same binder?
**A.** 2.3 nM
